Changes are numbered by the printed parent chain. Numbers in names are those of the source. Blank lines part the entries; values can stand above or below the molecule they belong to.
Experiments:
[1] = molecular target: Cdc13 OB2 domain L401A (S. cerevisiae) (UniProt P32797); assay: cross-linking
[2] = molecular target: Cdc13 OB2 domain P371S (cdc13-1 mutation) (S. cerevisiae) (UniProt P32797); assay: cross-linking
[3] = molecular target: Cdc13 OB2 domain Y388A (S. cerevisiae) (UniProt P32797); assay: cross-linking
cross-linking = molecular target: the molecule itself; assay: cross-linking
[4] = molecular target: T1, Cdc13 construct consisting of residues 344-924 (domains OB2-DBD-OB4) (S. cerevisiae, UniProt P32797 344-924); assay: ITC
T1 sequence (looked up): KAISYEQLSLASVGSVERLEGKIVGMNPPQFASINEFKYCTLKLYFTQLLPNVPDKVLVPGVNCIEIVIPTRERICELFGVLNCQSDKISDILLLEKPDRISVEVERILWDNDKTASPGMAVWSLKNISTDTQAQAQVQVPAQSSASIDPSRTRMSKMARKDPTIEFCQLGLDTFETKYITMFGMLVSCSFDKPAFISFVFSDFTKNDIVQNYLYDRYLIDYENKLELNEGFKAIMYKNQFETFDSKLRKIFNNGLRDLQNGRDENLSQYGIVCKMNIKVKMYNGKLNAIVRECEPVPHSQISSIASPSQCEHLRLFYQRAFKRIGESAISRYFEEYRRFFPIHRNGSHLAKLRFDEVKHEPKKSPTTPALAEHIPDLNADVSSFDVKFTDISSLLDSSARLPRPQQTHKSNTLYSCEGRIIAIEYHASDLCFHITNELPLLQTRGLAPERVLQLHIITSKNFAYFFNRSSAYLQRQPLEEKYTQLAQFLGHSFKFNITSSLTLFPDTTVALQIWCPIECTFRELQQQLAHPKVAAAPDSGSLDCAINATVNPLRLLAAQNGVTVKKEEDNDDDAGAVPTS

percent reduction of OB2 dimerization (cross-linking) [1]: 50%
Molecule: Cdc13 OB2 domain L401A (from UniProt P32797 344-495) (domain or fragment)

percent reduction of OB2 dimerization (cross-linking) [3]: 70%
Molecule: Cdc13 OB2 domain Y388A (from UniProt P32797 344-495) (domain or fragment)

Kd [4]: 6.4 µM
B3: C-terminal domain of Stn1, residues 311-494 (domain or fragment, S. cerevisiae, UniProt P38960 311-494, looked up)
chain: NRTSAKSNLMLILLGLQMKEISNSDLYKLKEVRSVVTSLASFLFQQQNVGVMKSFDSLEKEAFRDLVNRLVSQGLIGLKDKTSETFDLLPLKNLFEYAEKRISVLMKLQCYTGTVQLSHVQEKLHLPYITTNGIVDVFKECLKRTKKQYPEVLKNWWIDLDPKNGMEDQNSGILLHLEYAAAYS

The remaining lines, values behind:

Molecule: Cdc13 OB2 domain P371S (cdc13-1 mutation) (from UniProt P32797 344-495) (domain or fragment)
percent reduction of OB2 dimerization (cross-linking) [2]: 78%

B1: S. cerevisiae Cdc13 OB2 domain, wild type (domain or fragment, UniProt P32797 344-495, looked up)
chain: KAISYEQLSLASVGSVERLEGKIVGMNPPQFASINEFKYCTLKLYFTQLLPNVPDKVLVPGVNCIEIVIPTRERICELFGVLNCQSDKISDILLLEKPDRISVEVERILWDNDKTASPGMAVWSLKNISTDTQAQAQVQVPAQSSASIDPSR
stoichiometry N (cross-linking): 2

B2: Cdc13 OB2 domain C383S (domain or fragment, S. cerevisiae, UniProt P32797 344-495, looked up)
chain: B1 chain with C40S
binding result (cross-linking): binds

— paper PMC3545062 (Structure (London, England : 1993), 2012)
